Key:
Conditions in all cases: glycan lost; control: wild type APP-SNAP
[1] = confocal, fraction of cells with plasma-membrane APP-SNAP
[2] = confocal colocalisation with Golgi marker GRASP65
[3] = confocal imaging, size of APP-SNAP-positive vesicles
[4] = Aβ42 ELISA of cell lysate (intracellular)
[5] = confocal, plasma-membrane share of total APP-SNAP intensity per cell
[6] = Airyscan colocalisation with early endosome marker EEA1
[7] = Aβ42 ELISA of culture medium (secreted)
[8] = live-cell confocal colocalisation with SiR-lysosome

| Substance | localisation_or_trafficking, other: percent of cells with APP-SNAP in plasma membrane [1] | localisation_or_trafficking [2] | localisation_or_trafficking [3] | other: proteolytic processing [4] | localisation_or_trafficking [5] | localisation_or_trafficking [6] | other: proteolytic processing [7] | localisation_or_trafficking [8] |
| --- | --- | --- | --- | --- | --- | --- | --- | --- |
| amyloid precursor protein (hAPP695-SNAP): N467Q | decreases, 11.8 vs 35.3 | no change | decreases | increases | decreases | no change | increases | decreases |
| amyloid precursor protein (hAPP695-SNAP): N496Q | decreases, 9.8 vs 35.3 | no change | decreases | increases | decreases | no change | increases | decreases |

Source: publication PMC9132248
